± gives the standard deviation of the averaged measurements.
System: ATP
Test: switch fluorescence ratio, 500 uM ATP over buffer (Cy3 cluster intensity, sum of 5 cycles each) (fold (ratio)); higher = stronger signal-on switching upon ATP binding; sequences stand for … in TCGTCGGCAGCGTCAGATGTGTATAAGAGACAGTTTTTTTTTTTTTTTTTTTTTTTTT…TC
Conditions: aptamer strand: ATP DNA aptamer (quencher-CACCTGGGGGAGTATTGCGGAGGAAGG + anchor), 100 nM annealed; ATP concentration: 500 uM
Summary of the method: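 Exposure to 500 uM ATP lasted 15 min at 22 °C before imaging, and a selection-buffer image was taken beforehand, for Cy3-labelled switching-strand clusters on a modified Illumina MiSeq flow-cell annealed to 100 nM quencher-labelled ATP aptamer. Five buffer/ATP cycles were run with NaOH stripping and re-annealing between them. The fluorescence ratio per cluster is summed target-cycle over summed buffer-cycle Cy3 intensity, averaged per switch-domain sequence. Clusters outside 100-1000 RFU were excluded.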

With AATATAAAGG the switch fluorescence ratio was 1 ± 0.031.

ACCGCGTATG showed a switch fluorescence ratio of 1.03 ± 0.038.

With AGGATTTAAG the switch fluorescence ratio was 1.05 ± 0.022.

In the case of CGCCGGCGGG, the switch fluorescence ratio is reported as 0.978 ± 0.034.

AGGGGGTTTA showed a switch fluorescence ratio of 0.999 ± 0.031.

TTTGTTATAT gave a switch fluorescence ratio of 0.9839 ± 0.0039.

Sequence AGTGTACTAG has a switch fluorescence ratio of 1.045 ± 0.0022.

In the case of AAGTGATGGT, the switch fluorescence ratio is reported as 0.9999 ± 0.0069.

CGGCGTGGGG showed a switch fluorescence ratio of 1.03 ± 0.027.

Work on ATCTTAAGAT yielded a switch fluorescence ratio of 0.984 ± 0.066.

AAATTGGGTG showed a switch fluorescence ratio of 1.02 ± 0.048.

Work on TAAGTGTGTG yielded a switch fluorescence ratio of 0.975 ± 0.021.

CCACTTTCCT gave a switch fluorescence ratio of 1.2 ± 0.021.

In the case of CCGTTTCTGG, the switch fluorescence ratio is reported as 1 ± 0.063.

In the case of GATGAAGCCT, the switch fluorescence ratio is reported as 1.17 ± 0.035.

Sequence ATCTTTGCTA has a switch fluorescence ratio of 1 ± 0.036.

Sequence TTTACGTTTG has a switch fluorescence ratio of 0.9919 ± 0.0017.

AGGGGGGGCG showed a switch fluorescence ratio of 0.975 ± 0.05.

Sequence GGTGCAGGTG has a switch fluorescence ratio of 1.74 ± 0.59.

In the case of TGGTCTTTTT, the switch fluorescence ratio is reported as 0.995 ± 0.037.

TTTATAGGGG gave a switch fluorescence ratio of 1.08 ± 0.14.

With GTGGTTCCCG the switch fluorescence ratio was 1 ± 0.0099.

Sequence CGGGGAGCTG has a switch fluorescence ratio of 1.02 ± 0.036.

Work on TGAAGGGTAT yielded a switch fluorescence ratio of 1.02 ± 0.033.

Sequence CCAGACACAC has a switch fluorescence ratio of 1.45 ± 0.018.

Work on ATTTGTGGAC yielded a switch fluorescence ratio of 0.973 ± 0.037.

With TCCGGTTTTG the switch fluorescence ratio was 0.979 ± 0.013.

TAGGGGCACA showed a switch fluorescence ratio of 1.01 ± 0.033.

ATGTGGAGAT gave a switch fluorescence ratio of 0.977 ± 0.059.

AGCTGGAATA showed a switch fluorescence ratio of 1 ± 0.06.

In the case of CAGATGCGGA, the switch fluorescence ratio is reported as 0.984 ± 0.017.

For GGACCGCCTG, the switch fluorescence ratio was 1.01 ± 0.011.

Work on TTTTCCTAGT yielded a switch fluorescence ratio of 1.12 ± 0.073.

With TCTTTGAGGT the switch fluorescence ratio was 0.989 ± 0.022.

Work on TCGACATTAT yielded a switch fluorescence ratio of 1.034 ± 0.0055.

Sequence AAGTGGAATT has a switch fluorescence ratio of 1.03 ± 0.018.

Work on CGTGCTGGAA yielded a switch fluorescence ratio of 0.975 ± 0.045.

ATTCATTTTG showed a switch fluorescence ratio of 1.019 ± 0.0048.

Work on GTTTTTGGTG yielded a switch fluorescence ratio of 1 ± 0.018.

In the case of TTTCGGGCTG, the switch fluorescence ratio is reported as 0.984 ± 0.015.

In the case of AAATGCTTG, the switch fluorescence ratio is reported as 0.983 ± 0.019.

With TTTAACGAAT the switch fluorescence ratio was 1.09 ± 0.099.

CGAATGGAAC gave a switch fluorescence ratio of 0.989 ± 0.017.

Sequence ATATTGTTGG has a switch fluorescence ratio of 0.972 ± 0.031.

ATTCTATCGT gave a switch fluorescence ratio of 1.01 ± 0.015.

TTGCTGGATT was tested, and the switch fluorescence ratio was 1 ± 0.033.

For GTTGTGATGT, the switch fluorescence ratio was 1 ± 0.013.

GATAGTTTTG was tested, and the switch fluorescence ratio was 0.9856 ± 0.0089.

In the case of CGGGTTAAT, the switch fluorescence ratio is reported as 1 ± 0.041.

TATAGCGCTT showed a switch fluorescence ratio of 0.9905 ± 0.0035.

For TGACGTTCGG, the switch fluorescence ratio was 0.978 ± 0.029.

Sequence TGGCTCAGGC has a switch fluorescence ratio of 1 ± 0.025.

AATTTTTCGT was tested, and the switch fluorescence ratio was 1 ± 0.027.

In the case of AGCCTGGGCT, the switch fluorescence ratio is reported as 0.99 ± 0.014.

TTCGGTACTG showed a switch fluorescence ratio of 1.01 ± 0.033.

ACGGTCGGA was tested, and the switch fluorescence ratio was 0.9979 ± 0.0048.

TTTTCGTGAA gave a switch fluorescence ratio of 1.01 ± 0.021.

With CGAAGGATCT the switch fluorescence ratio was 1.02 ± 0.019.

In the case of GAATTAAATA, the switch fluorescence ratio is reported as 1.02 ± 0.018.

Sequence GGCCAGGGGG has a switch fluorescence ratio of 1 ± 0.09.

TGGGCGGGA gave a switch fluorescence ratio of 1 ± 0.03.

Work on GCTCACTGTG yielded a switch fluorescence ratio of 1.037 ± 0.0034.

For GATTTTGGAT, the switch fluorescence ratio was 0.994 ± 0.012.

TGAATAGGGT gave a switch fluorescence ratio of 1.03 ± 0.073.

ACGGCTTACT showed a switch fluorescence ratio of 1.208 ± 0.0019.

With GATTTGTTTG the switch fluorescence ratio was 0.985 ± 0.026.

With GTTTGCAACG the switch fluorescence ratio was 0.986 ± 0.021.

In the case of GGCCTCGACC, the switch fluorescence ratio is reported as 1.03 ± 0.0086.

With GCGGCGGAGG the switch fluorescence ratio was 0.995 ± 0.032.

With TTCAGGAGTG the switch fluorescence ratio was 0.993 ± 0.067.

With GGTCTACAGA the switch fluorescence ratio was 1.02 ± 0.011.

AAGCACCGGG gave a switch fluorescence ratio of 1.08 ± 0.085.

GACGATATGT showed a switch fluorescence ratio of 1.07 ± 0.041.

TCGGGGATCG showed a switch fluorescence ratio of 1.006 ± 0.0025.

AAAAGGAGGA gave a switch fluorescence ratio of 1.02 ± 0.043.

CGTATCTATC showed a switch fluorescence ratio of 1.007 ± 0.0065.

For ACGGGTGGGA, the switch fluorescence ratio was 1.005 ± 0.0036.

For CCGGGGGAGG, the switch fluorescence ratio was 1.06 ± 0.048.

CTAATGGTAT was tested, and the switch fluorescence ratio was 0.991 ± 0.022.

GAATTAGCAC showed a switch fluorescence ratio of 1.05 ± 0.038.

With TCTTTGGACT the switch fluorescence ratio was 1.002 ± 0.0032.

For CGGTGCGGGT, the switch fluorescence ratio was 0.992 ± 0.016.

GGCGGGTGAG showed a switch fluorescence ratio of 1.03 ± 0.025.

TGGGTTTCT was tested, and the switch fluorescence ratio was 1 ± 0.041.

For TCCTGATGGC, the switch fluorescence ratio was 0.985 ± 0.016.

For AGGTTAGGG, the switch fluorescence ratio was 1 ± 0.064.

AGGGGCTTTA was tested, and the switch fluorescence ratio was 1.14 ± 0.2.

CGAATCTTTT gave a switch fluorescence ratio of 1.013 ± 0.0025.

Work on TTTTCCGTGG yielded a switch fluorescence ratio of 1.01 ± 0.069.

GAGAGGTGTT gave a switch fluorescence ratio of 1.06 ± 0.039.

CTAGGGGGTT showed a switch fluorescence ratio of 1 ± 0.034.

Sequence TTACTATTTT has a switch fluorescence ratio of 1.03 ± 0.023.

GAGAGAGTGG was tested, and the switch fluorescence ratio was 0.976 ± 0.032.

For GTAAGTAGCG, the switch fluorescence ratio was 0.968 ± 0.02.

With GCTGTAATAT the switch fluorescence ratio was 1.11 ± 0.015.

ACAGGGTTGT gave a switch fluorescence ratio of 0.979 ± 0.013.

Work on ATTTTTAGT yielded a switch fluorescence ratio of 1 ± 0.016.

Sequence GGGTAATGTG has a switch fluorescence ratio of 0.982 ± 0.029.

Work on CAGGTGTTTG yielded a switch fluorescence ratio of 1.39 ± 0.055.

Work on GAATGGGAGG yielded a switch fluorescence ratio of 0.975 ± 0.02.

ACTGTTTTAT was tested, and the switch fluorescence ratio was 1.01 ± 0.038.

TTAAAATCCT gave a switch fluorescence ratio of 1.12 ± 0.11.

Sequence GTGGTTTGGC has a switch fluorescence ratio of 1.01 ± 0.09.

Work on CGGTGCGGTG yielded a switch fluorescence ratio of 0.981 ± 0.013.

In the case of CAGGGACGGA, the switch fluorescence ratio is reported as 1.02 ± 0.017.

With AGTCGTGCGG the switch fluorescence ratio was 0.988 ± 0.037.

GCTTCGGATC gave a switch fluorescence ratio of 1.22 ± 0.038.

Sequence TTGAGATTCG has a switch fluorescence ratio of 1.01 ± 0.031.

With GTTTGCTATT the switch fluorescence ratio was 0.992 ± 0.032.

Sequence AAGAGATATG has a switch fluorescence ratio of 1.02 ± 0.059.

For GAGCACGTTT, the switch fluorescence ratio was 0.9963 ± 0.0072.

CGACTAGGTA showed a switch fluorescence ratio of 1 ± 0.062.

With TAGGACCTGT the switch fluorescence ratio was 0.9849 ± 0.0073.

With GAGAGAGGGG the switch fluorescence ratio was 0.984 ± 0.026.

Work on TTGATTTCGT yielded a switch fluorescence ratio of 0.9998 ± 0.0024.

Sequence TTGGTTCCGC has a switch fluorescence ratio of 1.53 ± 0.48.

In the case of GGTAAATATG, the switch fluorescence ratio is reported as 1 ± 0.019.

AGCAGGATGC gave a switch fluorescence ratio of 0.987 ± 0.013.

With ACCTCGGTCG the switch fluorescence ratio was 0.983 ± 0.019.

AGCGGAGAGG was tested, and the switch fluorescence ratio was 1.006 ± 0.0096.

For AAGGTAATGG, the switch fluorescence ratio was 1.02 ± 0.014.

AAACCCGCCC showed a switch fluorescence ratio of 1.8128 ± 0.00028.

Sequence TAGAAGGGTT has a switch fluorescence ratio of 1 ± 0.024.

In the case of GGGGCTTGGG, the switch fluorescence ratio is reported as 0.989 ± 0.043.

With GCCTCCTTTT the switch fluorescence ratio was 1.05 ± 0.019.

With ACCTCATTAA the switch fluorescence ratio was 1.03 ± 0.015.

TAAAGTGTGG was tested, and the switch fluorescence ratio was 0.992 ± 0.027.

For GGGCTGGCTG, the switch fluorescence ratio was 0.998 ± 0.062.

Sequence GCCCCAGGGG has a switch fluorescence ratio of 4.81 ± 0.36.

In the case of TTAAGGGCGC, the switch fluorescence ratio is reported as 1 ± 0.084.

TCACTTGGGT showed a switch fluorescence ratio of 0.996 ± 0.036.

TCTGGGGGTA showed a switch fluorescence ratio of 0.982 ± 0.022.

TATTTAGTAG showed a switch fluorescence ratio of 1.006 ± 0.0072.

In the case of CGAGGCCTGT, the switch fluorescence ratio is reported as 1.02 ± 0.022.

With ATGGGTATCT the switch fluorescence ratio was 0.994 ± 0.033.

In the case of AAAAGGGTGA, the switch fluorescence ratio is reported as 1.02 ± 0.01.

In the case of AAGTTCGGTG, the switch fluorescence ratio is reported as 0.9695 ± 0.0027.

For TTGTCCTGCG, the switch fluorescence ratio was 0.965 ± 0.019.

For TATATCAGGT, the switch fluorescence ratio was 1.018 ± 0.0066.

For ATATGCTGGT, the switch fluorescence ratio was 0.982 ± 0.014.

Sequence TGAGCGGAGG has a switch fluorescence ratio of 1.01 ± 0.002.

AACCACGTTA gave a switch fluorescence ratio of 1.09 ± 0.053.

With CCGTTTTCGG the switch fluorescence ratio was 0.952 ± 0.053.

For GTTGGATTGG, the switch fluorescence ratio was 0.996 ± 0.019.

In the case of TCGTGGAGGT, the switch fluorescence ratio is reported as 0.985 ± 0.036.

With ACGATTAGTT the switch fluorescence ratio was 0.971 ± 0.032.

Work on TTTCTAAGAA yielded a switch fluorescence ratio of 1.01 ± 0.013.

ATTTTGTTCT gave a switch fluorescence ratio of 0.993 ± 0.031.

With TTTGGCTGTG the switch fluorescence ratio was 0.973 ± 0.029.

In the case of GGAGACCGCT, the switch fluorescence ratio is reported as 1.02 ± 0.034.

AACGTACTGG was tested, and the switch fluorescence ratio was 1.52 ± 0.095.

In the case of GGCCTGCCAT, the switch fluorescence ratio is reported as 0.9813 ± 0.0095.

For TAATATTGGG, the switch fluorescence ratio was 0.989 ± 0.029.

AGGTAGTGTG showed a switch fluorescence ratio of 0.989 ± 0.014.

GATAGGGTGC was tested, and the switch fluorescence ratio was 1.14 ± 0.044.

TAAAGAAAAG showed a switch fluorescence ratio of 0.988 ± 0.011.

In the case of TTTACAGGGT, the switch fluorescence ratio is reported as 1.03 ± 0.036.

— the supplement of paper PMC10126150
